This assay has as its target T1, Tsr1–TAP (S. cerevisiae, UniProt Q07381 1-788).
T1 sequence (looked up): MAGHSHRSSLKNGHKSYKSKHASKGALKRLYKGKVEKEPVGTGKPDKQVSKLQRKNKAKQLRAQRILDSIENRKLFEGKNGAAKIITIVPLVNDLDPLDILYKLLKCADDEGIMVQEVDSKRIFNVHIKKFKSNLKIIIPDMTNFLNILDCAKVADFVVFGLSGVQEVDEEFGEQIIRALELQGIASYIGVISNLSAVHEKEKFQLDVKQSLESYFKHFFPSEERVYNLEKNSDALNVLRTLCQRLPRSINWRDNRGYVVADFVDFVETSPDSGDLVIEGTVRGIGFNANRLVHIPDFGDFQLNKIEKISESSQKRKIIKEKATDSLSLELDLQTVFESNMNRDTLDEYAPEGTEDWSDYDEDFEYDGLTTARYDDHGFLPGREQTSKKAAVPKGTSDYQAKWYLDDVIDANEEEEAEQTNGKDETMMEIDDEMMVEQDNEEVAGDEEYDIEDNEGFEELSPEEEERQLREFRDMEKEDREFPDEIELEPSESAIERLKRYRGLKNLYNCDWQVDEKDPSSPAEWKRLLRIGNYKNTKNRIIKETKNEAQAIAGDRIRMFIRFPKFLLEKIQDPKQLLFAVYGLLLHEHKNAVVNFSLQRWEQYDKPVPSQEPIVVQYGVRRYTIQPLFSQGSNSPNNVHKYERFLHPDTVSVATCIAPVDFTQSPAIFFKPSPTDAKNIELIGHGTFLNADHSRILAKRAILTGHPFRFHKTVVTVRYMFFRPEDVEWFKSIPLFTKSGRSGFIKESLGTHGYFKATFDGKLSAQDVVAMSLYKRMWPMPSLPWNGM
The assay is described as follows: co-sedimentation.

Here are results for one molecule from publication PMC8848936 (RNA, 2022).

B1: recombinant Rio2 (Rio2-HA) (natural protein, yeast, UniProt P40160 1-425, looked up)
chain: MKLDTSHMRYLTTDDFRVLQAVEQGSRSHEVVPTPLIHQISGMRSQSGTNRAISDLAKLSLISKMRNVKYDGYRLTYNGIDYLALKTMLNRDTVYSVGNTIGVGKESDIYKVSDKNGNPRVMKIHRLGRTSFHSVRNNRDYLKKSNQGANWMHLSRLAANKEYQFMSMLYSKGFKVPEPFDNSRHIVVMELIEGYPMRRLRKHKNIPKLYSDLMCFIVDLANSGLIHCDFNEFNIMIKDKLEDENDCGFVVIDFPQCISIQHQDADYYFQRDVDCIRRFFKKKLKYEPKPDSSMLDTEGFGDGYKYAYPDFKRDVKRTDNLDELVQASGFSKKHPGDRGLETAVESMRNAVYNSDDDMSNDEAEEENGEGDYSEEDEYYDSELDNESSEDDSEDAQEEENERIIEALSSGVENLKMDKLGNYILE
With B1, the binding result is recorded as “binds”.
